Source: patent publication US20150183883A1 (Genentech, published 2015)

T1: endothelin B receptor (ETBR) on the surface of UACC-257X2.2 melanoma cells (human, UniProt P24530 27-442)
T1 construct: Endogenous ETBR on UACC-257X2.2 melanoma cells (parental and resistant lines); also called EDNRB; EDNBR
T1 sequence: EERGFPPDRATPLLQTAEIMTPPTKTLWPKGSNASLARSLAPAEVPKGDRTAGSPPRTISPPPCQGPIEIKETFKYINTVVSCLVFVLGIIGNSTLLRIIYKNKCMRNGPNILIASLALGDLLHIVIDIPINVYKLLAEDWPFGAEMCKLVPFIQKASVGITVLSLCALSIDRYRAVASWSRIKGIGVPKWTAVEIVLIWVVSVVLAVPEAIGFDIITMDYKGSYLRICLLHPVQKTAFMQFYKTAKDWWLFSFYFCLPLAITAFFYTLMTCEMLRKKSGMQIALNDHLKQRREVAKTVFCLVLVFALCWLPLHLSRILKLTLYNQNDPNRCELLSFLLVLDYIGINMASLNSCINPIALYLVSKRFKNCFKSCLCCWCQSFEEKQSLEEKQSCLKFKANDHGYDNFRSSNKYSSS


Target: T1, endothelin B receptor (ETBR) on the …
Assay: flow cytometry (FACS) on parental and resistant UACC-257X2.2 cells
Method: Expression of ETBR on the surface of the in vivo- and in vitro-derived resistant UACC-257X2.2 cells and the parental UACC-257X2.2 cells was then determined by FACS.

Row | binding result | Binder
1 | binds | hu5E9.v1 (antibody, human IgG1, kappa, V domains shown, Naked antibody used as FACS staining reagent and detected with an anti-human Alexa 488 conjugate; also called anti-ETBR antibody; humanized 5E9 version 1) VH: EVQLVESGGGLVQPGGSLRLSCAASGYTFTSYWMQWVRQAPGKGLEWIGTIYPGDGDTSYAQKFKGRATLSTDKSKNTAYLQMNSLRAEDTAVYYCARWGYAYDIDNWGQGTLVTVSS VL: DIQMTQSPSSLSASVGDRVTITCKSSQSLLDSDGKTYLNWLQQKPGKAPKRLIYLVSKLDSGVPSRFSGSGSGTDFTLTISSLQPEDFATYYCWQGTHFPYTFGQGTKVEIKR
2 | binds | ch5E9 (antibody, human IgG1, kappa, V domains shown, Naked antibody used as FACS staining reagent and detected with an anti-human Alexa 488 conjugate; also called anti-ETBR antibody; chimeric 5E9) VH: QVQLLQSGAELARPGASVKLSCKASGYTFTSYWMQWVKQRPGQGLEWIGTIYPGDGDTSYAQKFKGKATLTTDKYSSTAYMQLSSLASEDSAVYYCARWGYAYDIDNWGQGTLVTVSS VL: not shown
